Data taken from US20220281936.

Columns and labels:
[1] = system: IL12Rβ1-LS-IL12
[2] = system: Mouse IL12 (unmodified)
[3] = system: IL12Rβ1-VP-IL12

Chain of Mouse IL12 (unmodified) (chain, as listed by the source, chain 1 of 2): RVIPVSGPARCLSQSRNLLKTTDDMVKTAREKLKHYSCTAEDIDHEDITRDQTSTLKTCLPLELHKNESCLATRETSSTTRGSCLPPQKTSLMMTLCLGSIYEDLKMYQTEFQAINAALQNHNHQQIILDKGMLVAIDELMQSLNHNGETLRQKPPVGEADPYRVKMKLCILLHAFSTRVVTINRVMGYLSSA
Chain of Mouse IL12 (unmodified) (chain, as listed by the source, chain 2 of 2): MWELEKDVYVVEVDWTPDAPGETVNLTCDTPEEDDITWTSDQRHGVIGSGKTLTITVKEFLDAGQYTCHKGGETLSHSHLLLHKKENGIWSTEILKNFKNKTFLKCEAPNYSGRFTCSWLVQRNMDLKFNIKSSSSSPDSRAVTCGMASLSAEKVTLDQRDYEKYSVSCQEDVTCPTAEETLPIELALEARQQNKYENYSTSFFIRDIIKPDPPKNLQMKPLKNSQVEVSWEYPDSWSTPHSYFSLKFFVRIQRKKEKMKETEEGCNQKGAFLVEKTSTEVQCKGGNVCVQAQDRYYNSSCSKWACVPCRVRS
Chain of Recombinant mouse matrix metalloproteinase-2 (MMP2) (chain, as listed by the source): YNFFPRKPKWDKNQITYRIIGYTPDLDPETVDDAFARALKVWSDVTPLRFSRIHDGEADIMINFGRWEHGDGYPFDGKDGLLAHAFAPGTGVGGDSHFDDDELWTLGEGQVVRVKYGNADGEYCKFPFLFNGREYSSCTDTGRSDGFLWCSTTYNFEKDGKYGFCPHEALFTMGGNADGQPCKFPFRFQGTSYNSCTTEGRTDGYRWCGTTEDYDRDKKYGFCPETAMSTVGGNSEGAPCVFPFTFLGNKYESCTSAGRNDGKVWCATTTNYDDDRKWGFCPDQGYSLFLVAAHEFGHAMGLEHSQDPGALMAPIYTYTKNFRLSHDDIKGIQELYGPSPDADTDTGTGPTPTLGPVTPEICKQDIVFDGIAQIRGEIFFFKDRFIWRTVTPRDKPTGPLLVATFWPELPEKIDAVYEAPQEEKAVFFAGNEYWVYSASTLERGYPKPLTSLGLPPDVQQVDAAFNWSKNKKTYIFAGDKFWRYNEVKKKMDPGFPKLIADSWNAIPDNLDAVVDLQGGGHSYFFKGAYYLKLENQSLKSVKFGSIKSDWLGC
Chain of IL12Rβ1-LS-IL12 (chain, as listed by the source, chain 1 of 2): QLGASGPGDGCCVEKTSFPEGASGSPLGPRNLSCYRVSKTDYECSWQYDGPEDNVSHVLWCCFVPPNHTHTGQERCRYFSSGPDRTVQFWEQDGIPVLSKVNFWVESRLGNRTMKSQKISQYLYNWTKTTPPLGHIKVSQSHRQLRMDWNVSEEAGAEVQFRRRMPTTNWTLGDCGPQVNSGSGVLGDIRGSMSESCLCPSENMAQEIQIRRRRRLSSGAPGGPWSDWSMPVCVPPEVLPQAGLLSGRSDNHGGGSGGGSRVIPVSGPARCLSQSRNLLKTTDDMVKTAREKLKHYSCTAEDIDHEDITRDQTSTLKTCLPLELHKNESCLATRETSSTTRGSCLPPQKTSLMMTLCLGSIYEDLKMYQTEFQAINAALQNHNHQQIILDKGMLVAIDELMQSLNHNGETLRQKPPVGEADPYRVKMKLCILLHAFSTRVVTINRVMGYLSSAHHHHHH
Chain of IL12Rβ1-LS-IL12 (chain, as listed by the source, chain 2 of 2): as the sequence (chain, as listed by the source, chain 2 of 2) above

Substance: Recombinant human urokinase plasminogen activator (uPA)
- proteolytic cleavage, SDS-PAGE [1]: IL12Rβ1-LS-IL12 containing LSGRSDNH (SEQ ID NO:49) substrate was cleaved by uPA
- proteolytic cleavage, SDS-PAGE [2]: These enzymes had no effect on IL12 itself

Substance: Recombinant mouse matrix metalloproteinase-2 (MMP2)
- proteolytic cleavage, SDS-PAGE (30 min, 37 C) [3]: MMP2 and MMP9 fully cleaved the IL12Rβ1 portion, yielding IL12 heterodimer (-60 kDa)
- proteolytic cleavage, SDS-PAGE [2]: These enzymes had no effect on IL12 itself
